# Results as given in patent publication US7482138 (TRUSTEES OF COLUMBIA UNIVERSITY IN THE CITY OF NEW YORK, dated 2009).
# B1: Myc-tagged wild type PAK5 (human p21-activated kinase 5) (enzyme, not shown: small tags and cut ends)
# chain: MFGKKKKKIEISGPSNFEHRVHTGFDPQEQKFTGLPQQWHSLLADTANRPKPMVDPSCITPIQLAPMKTIVRGNKPCKETSINGLLEDFDNISVTRSNSLRKESPPTPDQGASSHGPGHAEENGFITFSQYSSESDTTADYTTEKYREKSLYGDDLDPYYRGSHAAKQNGHVMKMKHGEAYYSEVKPLKSDFARFSADYHSHLDSLSKPSEYSDLKWEYQRASSSSPLDYSFQFTPSRTAGTSGCSKESLAYSESEWGPSLDDYDRRPKSSYLNQTSPQPTMRQRSRSGSGLQEPMMPFGASAFKTHPQGHSYNSYTYPRLSEPTMCIPKVDYDRAQMVLSPPLSGSDTYPRGPAKLPQSQSKSGYSSSSHQYPSGYHKATLYHHPSLQSSSQYISTASYLSSLSLSSSTYPPPSWGSSSDQQPSRVSHEQFRAALQLVVSPGDPREYLANFIKIGEGSTGIVCIATEKHTGKQVAVKKMDLRKQQRRELLFNEVVIMRDYHHDNVVDMYSSYLVGDELWVVMEFLEGGALTDIVTHTRMNEEQIATVCLSVLRALSYLHNQGVIHRDIKSDSILLTSDGRIKLSDFGFCAQVSKEVPKRKSLVGTPYWMAPEVISRLPYGTEVDIWSLGIMVIEMIDGEPPYFNEPPLQAMRRIRDSLPPRVKDLHKVSSVLRGFLDLMLVREPSQRATAQELLGHPFLKLAGPPSCIVPLMRQYRHH
# notes: also called Myc-PAK5
# Target: Rac1V12, pre-loaded with [γ-32P] GTP (UniProt P63000 1-192)
# Test: overlay assay, immobilised Myc-tagged kinase probed with [γ-32P] GTP-loaded GTPase
# Excerpt: PAK4 and PAK5 interact with activated Rac and Cdc42. 293 cells were transfected with equal amounts of expression vectors, encoding the following Myc-tagged proteins: wild type PAK4 (Myc-PAK4), wild type PAK5 (Myc-PAK5), or PAK5ΔGBD. After transient expression, the Myc-tagged proteins were immunoprecipitated from whole cell lysates using a mouse anti-Myc antibody and protein A sepharose. The immunocomplexes were separated by SDS-PAGE and transferred to a PVDF membrane. The membranes were then probed with purified RhoV14, Rac1V12 or Cdc42V12, as indicated. The GTPases were pre-loaded with [γ-^32P] GTP as described in the Materials and Methods. A portion of the lysate was used for Western blot analysis (WB) with an anti-Myc antibody to measure the amount of each transfected protein in the lysates.
# The overlay assay is described in (27). Briefly, 293 cells were transfected with 10 µg of empty vector, MycPAK4, or Myc-PAK5. PAK4 and PAK5 were then immunopurified using anti-Myc antibody (9E10, Santa Cruz) and the immunopurified proteins were separated on SDS-PAGE and transferred to a PVDF membrane. The membrane was then washed and blocked with phosphate-buffered saline (PBS) containing 1% bovine serum albumin (BSA) and 100 mM dithiothreitol (DTT). Recombinant GTPases (2 µg) were pre-loaded with [γ-^32P] GTP and were incubated for 5 min with the PVDF membrane. […]
binder,measurement,value
B1,binding result,binds
